Reference: US10472401B2, “Peptides and combination of peptides for use in immunotherapy against ovarian cancer and other cancers” (immatics biotechnologies GmbH, priority 2015, dated 2019)

Biological target: HLA-A*02:01 (Homo sapiens, UniProt P04439, D140Y/D185E/D98H/E176V/E277Q/G131W/G231S/I119V/I121R/I166T/I218V/L300P/L318F/N151K/N90K/P208A/P217A/Q86G/Q94H/R138H/R169H/T345S)
Experiment: MHC binding assay (UV-ligand exchange, ELISA of stabilized MHC complexes)
Settings: MHC class I binding score; binding to HLA-A*02:01 ranged by peptide exchange yield (UV-ligand exchange, ELISA)
Excerpt: Candidate peptides for T cell based therapies according to the present invention were further tested for their MHC binding capacity (affinity). The individual peptide-MHC complexes were produced by UV-ligand exchange, where a UV-sensitive peptide is cleaved upon UV-irradiation, and exchanged with the peptide of interest as analyzed. Only peptide candidates that can effectively bind and stabilize the peptide-receptive MHC molecules prevent dissociation of the MHC complexes. To determine the yield of the exchange reaction, an ELISA was performed based on the detection of the light chain (β2m) of stabilized MHC complexes. The assay was performed as generally described in Rodenko et al. (Rodenko et al., 2006).
96 well MAXISorp plates (NUNC) were coated over night with 2 ug/ml streptavidin in PBS at room temperature, washed 4× and blocked for 1h at 37° C. in 2% BSA containing blocking buffer. […] Peptide-MHC monomers of the UV-exchange reaction were diluted 100 fold in blocking buffer. Samples were incubated for 1h at 37° C., washed four times, incubated with 2 ug/ml HRP conjugated anti-82m for 1h at 37° C., washed again and detected with TMB solution that is stopped with […]. Absorption was measured at 450 nm. Candidate peptides that show a high exchange yield (preferably higher than 50%, most preferred higher than 75%) are generally preferred for a generation and production of antibodies or fragments thereof, and/or T cell receptors or fragments thereof, as they show sufficient avidity to the MHC molecules and prevent dissociation of the MHC complexes.

5 (HLTEVYPEL; listed as Homo sapiens) [compound 5]
Peptide exchange: ″+++″ (≥50% = +++)

589 (KLYPQLPAEI; listed as Homo sapiens) [compound 589]
Peptide exchange: ″+++″ (≥50% = +++)

132 (LLVEQPPLAGV; listed as Homo sapiens) [compound 132]
Peptide exchange: ″+++″ (≥50% = +++)

284 (ILLSQTTGV; listed as Homo sapiens) [compound 284]
Peptide exchange: ″+++″ (≥50% = +++)

250 (ALSEEGLLVYL; listed as Homo sapiens) [compound 250]
Peptide exchange: ″+++″ (≥50% = +++)

432 (TLIEESAKV; listed as Homo sapiens) [compound 432]
Peptide exchange: ″++″ (≥20% = ++)

583 (ILANDGVLLAA; listed as Homo sapiens) [compound 583]
Peptide exchange: ″+++″ (≥50% = +++)

14 (AAYGGLNEKSFV; listed as Homo sapiens) [compound 14]
Peptide exchange: ″+++″ (≥50% = +++)

409 (LLDAMNYHL; listed as Homo sapiens) [compound 409]
Peptide exchange: ″++″ (≥20% = ++)

552 (GLLDLPFRVGV; listed as Homo sapiens) [compound 552]
Peptide exchange: ″++++″ (≥75% = ++++)

474 (YLDPALELGPRNV; listed as Homo sapiens) [compound 474]
Peptide exchange: ″+++″ (≥50% = +++)

207 (GLTSTNAEV; listed as Homo sapiens) [compound 207]
Peptide exchange: ″++″ (≥20% = ++)

426 (RLADKSVLV; listed as Homo sapiens) [compound 426]
Peptide exchange: ″+++″ (≥50% = +++)

185 (FLIDDKGYTL; listed as Homo sapiens) [compound 185]
Peptide exchange: ″++″ (≥20% = ++)

381 (FIDEAYVEV; listed as Homo sapiens) [compound 381]
Peptide exchange: ″++″ (≥20% = ++)

220 (LLQKFVPEI; listed as Homo sapiens) [compound 220]
Peptide exchange: ″++″ (≥20% = ++)

348 (ILLDVKTRL; listed as Homo sapiens) [compound 348]
Peptide exchange: ″++++″ (≥75% = ++++)

619 (ALQDRVPLA; listed as Homo sapiens) [compound 619]
Peptide exchange: ″+++″ (≥50% = +++)

548 (ALWENPESGEL; listed as Homo sapiens) [compound 548]
Peptide exchange: ″++″ (≥20% = ++)

311 (RLYTGMHTV; listed as Homo sapiens) [compound 311]
Peptide exchange: ″+++″ (≥50% = +++)

267 (ALQDFLLSV; listed as Homo sapiens) [compound 267]
Peptide exchange: ″+++″ (≥50% = +++)

160 (FLFDEEIEQI; listed as Homo sapiens) [compound 160]
Peptide exchange: ″+++″ (≥50% = +++)

327 (GLAPFTEGISFV; listed as Homo sapiens) [compound 327]
Peptide exchange: ″+++″ (≥50% = +++)

321 (GLFEDVTQPGILL; listed as Homo sapiens) [compound 321]
Peptide exchange: ″++++″ (≥75% = ++++)

23 (VLLDDIFAQL; listed as Homo sapiens) [compound 23]
Peptide exchange: ″+++″ (≥50% = +++)

157 (SLNDEVPEV; listed as Homo sapiens) [compound 157]
Peptide exchange: ″++″ (≥20% = ++)

521 (MLLTKLPTI; listed as Homo sapiens) [compound 521]
Peptide exchange: ″+++″ (≥50% = +++)

209 (KLIESKHEV; listed as Homo sapiens) [compound 209]
Peptide exchange: ″++″ (≥20% = ++)

448 (NLLETKLQL; listed as Homo sapiens) [compound 448]
Peptide exchange: ″+++″ (≥50% = +++)

285 (QLLHVGVTV; listed as Homo sapiens) [compound 285]
Peptide exchange: ″+++″ (≥50% = +++)

551 (KLYESLLPFA; listed as Homo sapiens) [compound 551]
Peptide exchange: ″+++″ (≥50% = +++)

538 (LLLAHIIAL; listed as Homo sapiens) [compound 538]
Peptide exchange: ″++″ (≥20% = ++)

100 (YLLSTNAQL; listed as Homo sapiens) [compound 100]
Peptide exchange: ″++++″ (≥75% = ++++)

622 (RLLGEEVVRVLQA; listed as Homo sapiens) [compound 622]
Peptide exchange: ″+++″ (≥50% = +++)

177 (YLLPEEYTSTL; listed as Homo sapiens) [compound 177]
Peptide exchange: ″++++″ (≥75% = ++++)

196 (YLYSVEIKL; listed as Homo sapiens) [compound 196]
Peptide exchange: ″++++″ (≥75% = ++++)

148 (ALNPEIVSV; listed as Homo sapiens) [compound 148]
Peptide exchange: ″++″ (≥20% = ++)

597 (KLLEGQVIQL; listed as Homo sapiens) [compound 597]
Peptide exchange: ″+++″ (≥50% = +++)

498 (KLWTGGLDNTV; listed as Homo sapiens) [compound 498]
Peptide exchange: ″+++″ (≥50% = +++)

314 (ALIAEGIALV; listed as Homo sapiens) [compound 314]
Peptide exchange: ″+++″ (≥50% = +++)

237 (ALLEASGTLLL; listed as Homo sapiens) [compound 237]
Peptide exchange: ″++++″ (≥75% = ++++)

242 (AIAYILQGV; listed as Homo sapiens) [compound 242]
Peptide exchange: ″++″ (≥20% = ++)

339 (GLWEIENNPTVKA; listed as Homo sapiens) [compound 339]
Peptide exchange: ″++++″ (≥75% = ++++)

609 (ALWKQLLEL; listed as Homo sapiens) [compound 609]
Peptide exchange: ″+++″ (≥50% = +++)

530 (VMYADIGGMDI; listed as Homo sapiens) [compound 530]
Peptide exchange: ″+++″ (≥50% = +++)

202 (ALLDQQGSRWTL; listed as Homo sapiens) [compound 202]
Peptide exchange: ″+++″ (≥50% = +++)

66 (FLDENIGGVAV; listed as Homo sapiens) [compound 66]
Peptide exchange: ″+++″ (≥50% = +++)

77 (ILVEADGAWVV; listed as Homo sapiens) [compound 77]
Peptide exchange: ″++++″ (≥75% = ++++)

210 (LLLNAVLTV; listed as Homo sapiens) [compound 210]
Peptide exchange: ″++″ (≥20% = ++)

69 (FQLDPSSGVLVTV; listed as Homo sapiens) [compound 69]
Peptide exchange: ″+++″ (≥50% = +++)

122 (FLLAEDDIYL; listed as Homo sapiens) [compound 122]
Peptide exchange: ″+++″ (≥50% = +++)

246 (LLWEVVSQL; listed as Homo sapiens) [compound 246]
Peptide exchange: ″+++″ (≥50% = +++)

301 (FLVEDLVDSL; listed as Homo sapiens) [compound 301]
Peptide exchange: ″+++″ (≥50% = +++)

191 (LLQEGQALEYV; listed as Homo sapiens) [compound 191]
Peptide exchange: ″++″ (≥20% = ++)

600 (ALAAPDIVPAL; listed as Homo sapiens) [compound 600]
Peptide exchange: ″+++″ (≥50% = +++)

7 (SLVGLLLYL; listed as Homo sapiens) [compound 7]
Peptide exchange: ″++++″ (≥75% = ++++)

531 (YTLPIASSIRL; listed as Homo sapiens) [compound 531]
Peptide exchange: ″+++″ (≥50% = +++)

577 (VMFEDGVLMRL; listed as Homo sapiens) [compound 577]
Peptide exchange: ″+++″ (≥50% = +++)

175 (YLFENISQL; listed as Homo sapiens) [compound 175]
Peptide exchange: ″+++″ (≥50% = +++)

488 (FLAEDPKVTL; listed as Homo sapiens) [compound 488]
Peptide exchange: ″+++″ (≥50% = +++)

537 (TLAPGEVLRSV; listed as Homo sapiens) [compound 537]
Peptide exchange: ″+++″ (≥50% = +++)

400 (SLLTEQDLWTV; listed as Homo sapiens) [compound 400]
Peptide exchange: ″++″ (≥20% = ++)

303 (AILPQLFMV; listed as Homo sapiens) [compound 303]
Peptide exchange: ″++++″ (≥75% = ++++)

525 (VLLEAGEGLVTI; listed as Homo sapiens) [compound 525]
Peptide exchange: ″+++″ (≥50% = +++)

282 (LLADVVPTT; listed as Homo sapiens) [compound 282]
Peptide exchange: ″+++″ (≥50% = +++)

81 (FLFSQLQYL; listed as Homo sapiens) [compound 81]
Peptide exchange: ″++″ (≥20% = ++)

50 (SLSELEALM; listed as Homo sapiens) [compound 50]
Peptide exchange: ″+++″ (≥50% = +++)

464 (ALNDCIYSV; listed as Homo sapiens) [compound 464]
Peptide exchange: ″+++″ (≥50% = +++)

557 (KLYDDMIRL; listed as Homo sapiens) [compound 557]
Peptide exchange: ″+++″ (≥50% = +++)

350 (ALLDVTHSELTV; listed as Homo sapiens) [compound 350]
Peptide exchange: ″+++″ (≥50% = +++)

252 (LLIGTDVSL; listed as Homo sapiens) [compound 252]
Peptide exchange: ″+++″ (≥50% = +++)
